Measurements: patent US20100222401A1, “COMPOSITIONS AND METHODS FOR TREATING PATHOLOGIC ANGIOGENESIS AND VASCULAR PERMEABILITY” (priority 2008, published 2010)
Where “and” joins values, the source holds several entries; their conditions need not be identical. Equal values may be shown once. Entries after “also recorded” stand apart in the source; their conditions may differ.

Legend:
[1] = tested on: neovascular tuft formation; assay: Laser-induced choroidal neovascularization, SecinH3; type: in vivo; conditions: wild-type mice, intravitreal injection, final concentration 21.6 μM, versus DMSO
HMVEC = assay: VEGF induced migration of HMVECs (modified Boyden chamber); type: cell-based, human
ARF6 [2] = assay: VEGF induced ARF6-GTP, HMVEC, SecinH3; type: cell-based, human
[3] = tested on: neovascular tuft formation; assay: Oxygen-induced retinopathy, SecinH3; type: in vivo; conditions: wild-type mice, intraocular injection, final concentration 21.6 μM, versus DMSO
[4] = tested on: human microvascular endothelial cells; assay: Haptotaxis migration assay, human microvascular endothelial cells; type: cell-based; conditions: transwells coated with fibronectin and Slit2
LPS = assay: Acute lung injury, intratracheal LPS, bronchoalveolar lavage; type: in vivo, mice; conditions: versus Mock preparation
dermal permeability = assay: Miles assay / VEGF-induced dermal permeability; type: in vivo; conditions: Robo4^+/+ mice, concomitant intradermal Slit2
[5] = tested on: pathological angiogenesis; assay: Oxygen-induced retinopathy (OIR), Slit2N; type: in vivo; conditions: Robo4^+/+ mice, intravitreal administration
lung endothelial cells [6] = assay: VEGF-A endothelial cell migration assay, murine lung endothelial cells; type: cell-based, mice
lung endothelial cells [7] = assay: VEGF-A tube formation assay, murine lung endothelial cells; type: cell-based, mice
c-Src = assay: VEGF-A-stimulated c-Src phosphorylation, HMVEC; type: cell-based, human; conditions: endothelial cells (HMVEC)
ARF6 [8] = assay: ARF6 activation assay (GST-GGA3), endothelial cells on fibronectin; type: cell-based; conditions: endothelial cells on fibronectin and Slit2
Rac [9] = assay: Rac-GTP levels, endothelial cells on fibronectin; type: cell-based; conditions: endothelial cells on fibronectin and Slit2
retinal endothelium = assay: VEGF induced retinal permeability (Evans Blue), Slit2; type: in vivo, mice; conditions: intravitreal co-injection
[10] = tested on: murine lung endothelial cells; assay: bFGF-induced tube formation on matrigel; type: cell-based
Rac [11] = assay: VEGF-induced Rac activation in HUVEC; type: cell-based, human; conditions: GST-PBD pull down
Rac1 = assay: VEGF-A-dependent Rac1 activation, HMVEC; type: cell-based, human; conditions: endothelial cell monolayers (HMVEC)
ARF6 [12] = assay: ARF6 activation assay (GST-GGA3), endothelial cells on VEGF-165; type: cell-based; conditions: endothelial cells on dishes coated with VEGF-165 and Slit2
Rho = assay: Rho-GTP levels, endothelial cells on fibronectin; type: cell-based; conditions: presence of Slit2
endothelial cells = assay: Spreading assay, endothelial cells; type: cell-based, human
VEGFR2 = assay: VEGF-A-induced VEGFR2 phosphorylation, HMVEC; type: cell-based, human; conditions: 5 minutes
[13] = tested on: choroidal neovascularization; assay: Laser-induced choroidal neovascularization (CNV), Slit2N; type: in vivo; conditions: Robo4^+/+ mice, intravitreal administration
[14] = tested on: neovascularization of the retina; assay: Retinopathy of prematurity: percent neovascularization of the retina (FIG. 12); type: in vivo; conditions: wildtype mice, Slit versus Mock preparation, N=6, P<0.003
lung endothelial cells [15] = assay: In vitro permeability assay (Transwell, HRP); type: cell-based, mice; conditions: Robo4^+/+ endothelial cell monolayers, pre-treatment with Slit2
Cdc42 = assay: Cdc42-GTP levels, endothelial cells on fibronectin; type: cell-based; conditions: presence of Slit2
[16] = tested on: Avian Flu Virus, strain H5N1/Duck/Mn/1525/81; design: species or system BALB/c mice; conditions: mouse, in vivo
[17] = tested on: endothelial cell migration; assay: VEGF-induced endothelial cell migration by Slit constructs (FIG. 23); type: cell-based; conditions: Slit constructs 2 nM, compared with full length Slit2; listed as Slit2-D1
[18] = endothelial cells pre-treated with inhibitor or vehicle (Example 28)

COc1nc(-c2ccc3c(c2)OCO3)n(-c2ccc(NC(=O)CSc3ccccc3)cc2)n1 [SecinH3]
neovascular tuft formation in CNV [1]: inhibited
VEGF-165 induced cell migration response (HMVEC; HMVEC, 15 ng/ml VEGF-165, 15 μM Secin-H3, 3 h): attenuated; also recorded: inhibits
VEGF-induced cell migration (HMVEC; [18]): prevented
accumulation of ARF6-GTP (ARF6 [2]; HMVEC, 20 ng/ml VEGF, 50 μM Secin-H3): blocks; also recorded: inhibits
VEGF-induced Arf6 activation (ARF6 [2]; [18]): prevented
neovascular tuft formation in OIR [3]: inhibited

B1: Slit2N (protein)
chain: QACPAQCSCSGSTVDCHGLALRSVPRNIPRNTERLDLNGNNITRITKTDFAGLRHLRVLQLMENKISTIERGAFQDLKELERLRLNRNHLQLFPELLFLGTAKLYRLDLSENQIQAIPRKAFRGAVDIKNLQLDYNQISCIEDGAFRALRDLEVLTLNNNNITRLSVASFNHMPKLRTFRLHSNNLYCDCHLAWLSDWLRQRPRVGLYTQCMGPSHLRGHNVAEVQKREFVCSGHQSFMAPSCSVLHCPAACTCSNNIVDCRGKGLTEIPTNLPETITEIRLEQNTIKVIPPGAFSPYKKLRRIDLSNNQISELAPDAFQGLRSLNSLVLYGNKITELPKSLFEGLFSLQLLLLNANKINCLRVDAFQDLHNLNLLSLYDNKLQTIAKGTFSPLRAIQTMHLAQNPFICDCHLKWLADYLHTNPIETSGARCTSPRRLANKRIGQIKSKKFRCSAKEQYFIPGTEDYRSKLSGDCFADLACPEKCRCEGTTVDCSNQKLNKIPEHIPQYTAELRLNNNEFTVLEATGIFKKLPQLRKINFSNNKITDIEEGAFEGASGVNEILLTSNRLENVQHKMFKGLESLKTLMLRSNRITCVGNDSFIGLSSVRLLSLYDNQITTVAPGAFDTLHSLSTLNLLANPFNCNCYLAWLGEWLRKKRIVTGNPRCQKPYFLKEIPIQDVAIQDFTCDDGNDDNSCSPLSRCPTECTCLDTVVRCSNKGLKVLPKGIPRDVTELYLDGNQFTLVPKELSNYKHLTLIDLSNNRISTLSNQSFSNMTQLLTLILSYNRLRCIPPRTFDGLKSLRLLSLHGNDISVVPEGAFNDLSALSHLAIGANPLYCDCNMQWLSDWVKSEYKEPGIARCAGPGEMADKLLLTTPSKKFTCQGPVDVNILAKCNPCLSNPCKNDGTCNSDPVDFYRCTCPYGFKGQDCDVPIHACISNPCKHGGTCHLKEGEEDGFWCICADGFEGENCEVNVDDCEDNDCENNSTCVDGINNYTCLCPPEYTGELCEEKLDFCAQDLNPCQHDSKCILTPKGFKCDCTPGYVGEHCDIDFDDCQDNKCKNGAHCTDAVNGYTCICPEGYSGLFCEFSPP
fibronectin-driven cell migration (haptotaxis) [4]: blocked
concentration of inflammatory cells in bronchoalveolar lavages (BAL) (LPS): significantly lower
concentration of protein in bronchoalveolar lavages (BAL) (LPS): significantly lower
concentration of inflammatory cells in bronchoalveolar lavages (BAL) (LPS; listed as Slit protein): significantly reduced
concentration of protein in bronchoalveolar lavages (BAL) (LPS; listed as Slit protein): significantly reduced
VEGF-A-stimulated leak of Evans Blue into the dermis (dermal permeability): prevented
angiogenesis in oxygen-induced retinopathy [5]: markedly reduced
VEGF-A-dependent endothelial cell migration (lung endothelial cells [6]; Robo4^+/+ endothelial cells): inhibited
VEGF-A-dependent endothelial cell migration, inhibitory activity (lung endothelial cells [6]; Robo4^AP/AP endothelial cells): lost
VEGF-A-dependent tube formation (lung endothelial cells [7]; Robo4^+/+ endothelial cells): inhibited
VEGF-A-dependent tube formation, inhibitory activity (lung endothelial cells [7]; Robo4^AP/AP endothelial cells): lost
VEGF-A-stimulated phosphorylation of c-Src (c-Src): reduced
fibronectin-induced increase in ARF6-GTP (ARF6 [8]): efficiently blocked
fibronectin-induced increase in Rac-GTP (Rac [9]): efficiently blocked
VEGF-A induced leak of Evans Blue from the retinal blood vessels (retinal endothelium; Robo4^+/+ mice): suppressed
VEGF-A induced leak of Evans Blue from the retinal blood vessels (retinal endothelium; Robo4^AP/AP mice): refractory
bFGF-induced endothelial tube formation [10]: blocked
VEGF-stimulated Rac activation (Rac [11]): completely suppressed
VEGF-A-dependent Rac1 activation (Rac1): prevented
VEGF-165-induced ARF6 activation (ARF6 [12]): prevented
Rho activation (Rho): unaltered
cell spreading on fibronectin (endothelial cells): markedly inhibited
cellular protrusive activity stimulated by integrin ligation (spreading) (endothelial cells; endothelial cells on 9-11 fragment of fibronectin and Slit2): suppressed
VEGF-A-induced VEGFR2 phosphorylation (VEGFR2): no effect
angiogenesis in laser-induced choroidal neovascularization [13]: reduced
reduction in neovascularization [14]: 63%
VEGF-A-enhanced accumulation of HRP in the lower chamber (lung endothelial cells [15]): prevented
Cdc42 activation (Cdc42): significantly reduced
mortality [16]: lower mortality
survivability rate [16]: 25% and 50%
Av. Wt. ([16]; iv): 17.4 grams and 18.5 grams and 16.0 grams and 15.4 grams

B2: SlitD1 (protein)
chain: ILNKVAPQACPAQCSCSGSTVDCHGLALRSVPRNIPRNTERLDLNGNNITRITKTDFAGLRHLRVLQLMENKISTIERGAFQDLKELERLRLNRNHLQLFPELLFLGTAKLYRLDLSENQIQAIPRKAFRGAVDIKNLQLDYNQISCIEDGAFRALRDLEVLTLNNNNITRLSVASFNHMPKLRTFRLHSNNLYCDCHLAWLSDWLRQRPRVGLYTQCMGPSHLRGHNVAEVQKREFVCSGHQS
Inhibition of VEGF mediated endothelial cell migration [17]: active
